# Experimental data from patent US20090305973A1, “NOVEL PEPTIDE AND USE THEREOF” (priority 2006, published 2009).
# Where no end group is shown, it is not given here.
# B1: AIMP1-(1-312): full-length ARS-interacting multi-functional protein 1 consisting of 312 amino acids (protein, listed as Homo sapiens)
# chain: MANNDAVLKRLEQKGAEADQIIEYLKQQVSLLKEKAILQATLREEKKLRVENAKLKKEIEELKQELIQAEIQNGVKQIAFPSGTPLHANSMVSENVIQSTAVTTVSSGTKEQIKGGTGDEKKAKEKIEKKGEKKEKKQQSIAGSADSKPIDVSRLDLRIGCIITARKHPDADSLYVEEVDVGEIAPRTVVSGLVNHVPLEQMQNRMVILLCNLKPAKMRGVLSQAMVMCASSPEKIEILAPPNGSVPGDRITFDAFPGEPDKELNPKKKIWEQIQPDLHTNDECVATYKGVPFEVKGKGVCRAQTMSNSGIK
# B2: AIMP1-(114-192): recombinant deletion mutant of AIMP1, expressed as GST-tag fusion protein (protein, UniProt Q12904 114-192, looked up, fragment)
# chain: KGGTGDEKKAKEKIEKKGEKKEKKQQSIAGSADSKPIDVSRLDLRIGCIITARKHPDADSLYVEEVDVGEIAPRTVVSG
# modifications: GST tag
# notes: recombinant deletion mutant of AIMP1, expressed as GST-tag fusion protein
# B3: AIMP1-(193-312): recombinant deletion mutant of AIMP1, expressed as GST-tag fusion protein (protein, UniProt Q12904 193-312, looked up, fragment)
# chain: LVNHVPLEQMQNRMVILLCNLKPAKMRGVLSQAMVMCASSPEKIEILAPPNGSVPGDRITFDAFPGEPDKELNPKKKIWEQIQPDLHTNDECVATYKGVPFEVKGKGVCRAQTMSNSGIK
# modifications: GST tag
# notes: as for B2
# B4: AIMP1-(1-192): recombinant deletion mutant of AIMP1, expressed as GST-tag fusion protein (protein, listed as Homo sapiens)
# chain: MANNDAVLKRLEQKGAEADQIIEYLKQQVSLLKEKAILQATLREEKKLRVENAKLKKEIEELKQELIQAEIQNGVKQIAFPSGTPLHANSMVSENVIQSTAVTTVSSGTKEQIKGGTGDEKKAKEKIEKKGEKKEKKQQSIAGSADSKPIDVSRLDLRIGCIITARKHPDADSLYVEEVDVGEIAPRTVVSG
# modifications: GST tag fusion; PEPTIDE (1)..(192) AIMP1-(1-192)
# notes: as for B2
# B5: AIMP1-(6-192): recombinant deletion mutant of AIMP1, expressed as GST-tag fusion protein (protein, listed as Homo sapiens)
# chain: AVLKRLEQKGAEADQIIEYLKQQVSLLKEKAILQATLREEKKLRVENAKLKKEIEELKQELIQAEIQNGVKQIAFPSGTPLHANSMVSENVIQSTAVTTVSSGTKEQIKGGTGDEKKAKEKIEKKGEKKEKKQQSIAGSADSKPIDVSRLDLRIGCIITARKHPDADSLYVEEVDVGEIAPRTVVSG
# modifications: GST tag fusion; PEPTIDE (1)..(187) AIMP1-(6-192)
# notes: as for B2
# B6: AIMP1-(30-192): recombinant deletion mutant of AIMP1, expressed as GST-tag fusion protein (protein, UniProt Q12904 30-192, looked up, fragment)
# chain: SLLKEKAILQATLREEKKLRVENAKLKKEIEELKQELIQAEIQNGVKQIPFPSGTPLHANSMVSENVIQSTAVTTVSSGTKEQIKGGTGDEKKAKEKIEKKGEKKEKKQQSIAGSADSKPIDVSRLDLRIGCIITARKHPDADSLYVEEVDVGEIAPRTVVSG
# modifications: GST tag
# notes: as for B2
# B7: AIMP1-(47-192): recombinant deletion mutant of AIMP1, expressed as GST-tag fusion protein (protein, UniProt Q12904 47-192, looked up, fragment)
# chain: KLRVENAKLKKEIEELKQELIQAEIQNGVKQIPFPSGTPLHANSMVSENVIQSTAVTTVSSGTKEQIKGGTGDEKKAKEKIEKKGEKKEKKQQSIAGSADSKPIDVSRLDLRIGCIITARKHPDADSLYVEEVDVGEIAPRTVVSG
# modifications: GST tag
# notes: as for B2
# B8: AIMP1-(54-192): recombinant deletion mutant of AIMP1, expressed as GST-tag fusion protein (protein, UniProt Q12904 54-192, looked up, fragment)
# chain: KLKKEIEELKQELIQAEIQNGVKQIPFPSGTPLHANSMVSENVIQSTAVTTVSSGTKEQIKGGTGDEKKAKEKIEKKGEKKEKKQQSIAGSADSKPIDVSRLDLRIGCIITARKHPDADSLYVEEVDVGEIAPRTVVSG
# modifications: GST tag
# notes: as for B2
# B9: AIMP1-(101-192): recombinant deletion mutant of AIMP1, expressed as GST-tag fusion protein (protein, UniProt Q12904 101-192, looked up, fragment)
# chain: AVTTVSSGTKEQIKGGTGDEKKAKEKIEKKGEKKEKKQQSIAGSADSKPIDVSRLDLRIGCIITARKHPDADSLYVEEVDVGEIAPRTVVSG
# modifications: GST tag
# notes: as for B2
# What was measured:
# [1] = system: Human foreskin fibroblast cells; experiment: Fibroblast proliferation, tritium-labeled thymidine incorporation; type: cell-based; conditions: for activity of inducing the proliferation of fibroblast cells: 100 nM, 12 hours, incorporated thymidine
# Description: (§1) Human foreskin fibroblast cells (MC1232 obtained from MIT), U2OS cells (ATCC HTB-96) and bovine aorta endothelial cells (hereinafter, referred to as “BAECs”) were treated with the AIMP1 fragments cleaved by elastase 2 in Test Example <1-1>, and the effects of the AIMP1 fragments on the proliferation of the cells were examined.
# (§2) Bovine aorta endothelial cells (BAECs) were isolated from bovine descending thoracic aorta and cultured in Dulbecco's modified Eagle's medium (DMEM) containing 20% FBS at 37° C. in a 5% CO2 atmosphere. The foreskin fibroblast cells and the U2OS cells were cultured in DMEM with 10% FBS and 1% antibiotic. Each of the cultured cell lines (5×10^3 cells) was cultivated in a 24-well dish for 12 hours and then subjected to serum-starved culture for 3 hours. Next, 100 nM of a full-length AIMP1 or fragments of AIMP1 cleaved with an enzyme were added to each well and cultivated for 12 hours. The control group was without the testing agents. After completion of the cultivation, tritium-labeled thymidine (1 μCi/well) was added to each well, and the cells were additionally cultured at 37° C. for 4 hours. The cultured cells were washed with PBS three times and fixed with 5% TCA for 10 minutes, followed by washing again with PBS three times. The cells were lysed with 0.5N NaOH, and the incorporated thymidine was quantified with a liquid scintillation counter.
# In order to examine the fibroblast proliferation activities of the recombinant proteins constructed in Example 1, foreskin fibroblast cells were treated with each of the recombinant proteins in the same manner as in Test Example <1-2>, and the proliferation of the fibroblast cells was examined.
# Whether the AIMP1-(6-46) fragment synthesized in Example <3-1> stimulates the proliferation of fibroblast cells was examined in the same manner as in Test Example <1-2>. Herein, the AIMP1-(6-46) fragment was used at various concentrations ([…]), and 100 nM of the full-length AIMP1 (AIMP1-(1-132)) was used as a control.
# C57BL/6 mice = experiment: In vivo wound healing (wound closure) of excised back skin wound; conditions: 200 nM in PBS containing 20% glycerol, applied to wound twice a day until day 8, 0.5 cm-diameter back wound
# Description: AIMP1-(14-34) (SEQ ID NO: 6) and AIMP1-(26-46) (SEQ ID NO: 7) fragments smaller than the AIMP1-(6-46) fragment synthesized in Example 3 were synthesized by a chemical synthetic method in Peptron (http://www.peptron.co.kr), and the wound healing-promoting activities thereof were analyzed in vivo. The analysis of the wound healing activities was performed using 8-week-old C57BL/6 mice. The mice were anesthetized with an intraperitoneal injection of 2.5% avertin (100 μl/10 g), and then the back of each animal was shaved, followed by disinfecting the back skin with 70% alcohol. The back skin was marked with a 0.5 cm-diameter circle, and a skin and panniculus carnosus muscle was removed with scissors to induce a wound. The wounds were left uncovered without a dressing. One wound was generated per mouse and treated with 200 nM of each of AIMP1-(14-34), AIMP1-(26-46) and AIMP1-(6-46) fragments in PBS (phosphate-buffered saline) containing 20% glycerol, twice a day at 12-hour intervals until day 8 after wounding. A control group was treated only with PBS containing 20% glycerol. Then, wound closure was monitored daily using the Image-pro Plus software and was calculated as the percentage of the initial wound area.
# [2] = system: bovine aorta endothelial cells; experiment: Endothelial cell proliferation, tritium-labeled thymidine incorporation; type: cell-based; conditions: 100 nM, 12 hours, BAECs, incorporated thymidine
# Description: as §1, §2
Molecule,activity of inducing the proliferation of fibroblast cells ([1]; foreskin fibroblast cells),also measured
"AIMP1-(1-46): recombinant deletion mutant of AIMP1, expressed as GST-tag fusion protein (MANNDAVLKRLEQKGAEADQIIEYLKQQVSLLKEKAILQATLREEK; also: GST tag fusion, end not given here; listed as Homo sapiens)",high proliferation-inducing activity,
"AIMP1-(1-53): recombinant deletion mutant of AIMP1, expressed as GST-tag fusion protein (MANNDAVLKRLEQKGAEADQIIEYLKQQVSLLKEKAILQATLREEKKLRVENA; also: GST tag fusion, end not given here; listed as Homo sapiens)",high proliferation-inducing activity,
"AIMP1-(14-34): 21-amino-acid fragment of AIMP1-(6-46), chemically synthesized (KGAEADQIIEYLKQQVSLLKE; PEPTIDE (1)..(21) AIMP1-(14-34); listed as Homo sapiens)",,activity of promoting wound healing (wound closure as percentage of the initial wound area) (C57BL/6 mice): had the activities of promoting wound healing
"AIMP1-(26-46): 21-amino-acid fragment of AIMP1-(6-46), chemically synthesized (KQQVSLLKEKAILQATLREEK; PEPTIDE (1)..(21) AIMP1-(26-46); listed as Homo sapiens)",,activity of promoting wound healing (wound closure as percentage of the initial wound area) (C57BL/6 mice): had the activities of promoting wound healing
"NH2-AVLKRLEQKGAEADQIIEYLKQQVSLLKEKAILQATLREEK-COOH (H-AVLKRLEQKGAEADQIIEYLKQQVSLLKEKAILQATLREEK-OH; listed as Homo sapiens) [AIMP1-(6-46), peptide corresponding to amino acids 6-46 of AIMP1, expressed in E. coli]",,"proliferation of fibroblast cells, dose dependence ([1]; concentrations 0, 50, 100 and 200 mM (so in the source), foreskin fibroblast cells): induced the proliferation of fibroblast cells in a dose-dependent manner; fibroblast proliferation activity compared with full-length AIMP1 at the same concentration ([1]; control 100 nM full-length AIMP1): almost similar to the full-length AIMP1; activity of promoting wound healing (wound closure as percentage of the initial wound area) (C57BL/6 mice): had the activities of promoting wound healing"
B1,high proliferation-inducing activity,activity of inhibiting the proliferation of endothelial cells [2]: inhibiting the proliferation of endothelial cells
B2,did not,
B3,did not,
B4,high proliferation-inducing activity,
B5,high proliferation-inducing activity,
B6,did not,
B7,did not,
B8,did not,
B9,did not,
